Literature values as cited in patent US20180296685A1, “TARGETED CONSTRUCTS AND FORMULATIONS THEREOF” (TARVEDA THERAPEUTICS, INC., priority 2017, published 2018).

Conditions: transthyretin, serum protein

For Transthyretin, the in vivo half-life is given as “around 48 h”.
